Laboratory results as given in the supplement of paper PMC10567573.

B1: CLCN6 (parent)
chain: FQSISLRKIQFNFPYFRSDRDKRD
B2: PLAGL1 (parent)
chain: DPNKMAFGCEECGKKYNTMLGYKR

Variants of: B1
Experiment: protein stability index of a GFP-peptide fusion (GPS, HEK-293T) (PSI 1-6); higher = more stable
Conditions: c terminus: a fixed tail appended
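Further: lentivirally expressed fusions sorted by FACS into six bins by GFP to DsRed ratio, PSI derived from sequencing read proportions per bin multiplied by bin number.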

Protein stability index: each site, then its substitutions
F13: Y 2.49; C 2.2; A 1.84; P 1.75; V 1.43; K 1.8; E 3.21; D 1.98; M 2.29; S 1.59; I 1.35; Q 2.28
S18: P 1.6; H 1.93; N 2.62; R 2.16; Y 2.35; T 2.31; A 1.99; D 1.71; M 1.38; V 1.25; Q 1.52
D24: H 2.1; I 2.59; Q 1.37; F 1.93; M 1.66; T 2.21; K 1.37; A 1.68; N 1.49; P 2; C 2.75; E 1.93; S 2.23; R 1.94; L 2; V 1.31; Y 1.58
F11: Y 1.61; C 1.96; P 1.28; K 2.79; H 1.74; R 1.51; E 2.02; G 1.41; Q 1.25; S 1.56; M 1.65; L 2.54
D21: S 3.06; C 2.4; K 1.31; E 1.1; V 2.94; M 2.08; H 2.02; F 3.21; Y 1.22; R 1.19; P 2.61; A 3.22; G 1.27
R23: C 1.67; D 1.72; L 1.35; K 1.91; F 2.01; W 1.26; V 1.88; H 1.99; Y 1.28; G 2.85; A 1.73; N 1.81; Q 2.39; I 1.69; P 3.46; M 1.38; E 1.86; T 2.25; S 1.29
P14: N 1.81; E 1.99; I 1.43; G 1.69; C 1.82; F 1.69; H 1.67; Q 2.5; L 1.24
R17: D 3.03; E 2.26; H 2.35; F 1.52; P 2.28; C 1.11; M 1.93; G 1.71; I 1.56; K 1.76; V 2.15; T 1.71; S 1.5; N 2.21; Q 2.02; Y 1.22
Q10: F 1.52; L 1.67; V 2.31; D 2.04; I 2.33; Y 1; P 1.74; S 1.98; N 1.95; K 1.67; H 1.51
K22: D 1.92; R 1.35; C 3.83; Q 1.68; I 1.81; L 1.71; H 1.34; Y 2.27; A 1.29; W 2.09; M 1.82; T 2.17; S 2.72; P 1.66
R20: H 1.72; P 1.45; K 1.43; A 2.17; E 2.73; T 1.25; N 1.72; W 3.61; M 1.72; L 1.22; Q 3.07; V 1.73; C 1.23; S 2.2
Y15: S 2.58; C 2.21; A 3.09; F 1.48; D 2.31; W 1.44; T 2.75; M 1.53; E 2.7; P 2.41; K 2; G 2.68; Q 2.56; I 2.15; V 2.22; N 2.78; H 2.78
F16: L 1.44; P 1.47; W 2.08; S 1.83; T 1.9; C 1.52; I 2.18; Q 2.39; N 2.68; H 2.3; A 1.68; E 2.22; D 2.74
D19: K 1.46; I 2; A 1.67; R 1.9; L 1.47; T 2.21; M 2.01; S 1.33; Q 1.85; P 2.16; F 1.68
N12: D 1.53; R 2.59; T 2.37; K 2.04; V 1.9; E 1.5; A 1.09; I 2.06; M 1.54; S 1.65

Variants of: B2
Experiment: as above
Conditions: c terminus: a fixed tail appended

Protein stability index of substitutions, site by site:
P2: H 1.86; A 2.26; T 2.03; V 2; W 1.82; Y 2.51; E 2.04; F 2.73; C 2.28; I 1.88; K 2.57; L 2.15; G 2.05; S 2.7; R 3.98; Q 1.92; D 2.54; N 2.12; M 3.12
F7: M 2.58; H 2.19; S 3.43; G 3.17; K 2.31; N 2.45; R 1.92; T 2.3; V 2.43; A 3.27; I 2.98; C 2.22; P 2.57; Y 2.53; E 3.21; W 1.74; D 2.59; Q 3.45
D1: E 1.77; L 2.34; Q 2.05; G 2.22; A 1.94; S 2.05; C 2.18; M 2.26; R 1.8; H 2.05; I 2.16; V 2.7; K 2.09; N 3.64; T 2.13; P 2.08
N3: R 2.25; S 2.87; T 2.79; E 2.52; L 3.54; C 2.23; G 2.8; H 2.61; W 2.23; F 2.15; I 2.19; K 3.1; Q 3.51; P 2.26; M 2.82; A 2.21; V 2.69; Y 2.14
K4: R 1.64; D 2.53; V 1.98; W 2.08; Q 2.61; E 3.3; H 2.35; L 2.85; Y 2.59; F 1.61; A 2.35; P 3.01; S 2.48; C 2.45; I 1.95; M 2.6; N 2.55; T 2.61; G 2.72
A6: Q 2.36; H 2.53; C 2.35; N 2.58; K 2.97; L 3.02; V 2.04; Y 2.19; F 2.32; M 2.75; D 2.9; I 2.46; G 2.02; W 2.9; E 3.09; T 2.29; R 2.19; P 2.53; S 2.33
G8: I 2.76; K 2.14; D 2.73; C 2.19; E 2.74; F 1.68; H 2.5
M5: I 2.38; F 2.15; L 2.67; W 2.35; A 2.63; D 3.54; G 2.81; Q 2.26; C 3.04; K 2.26; S 2.81; R 2.36; E 3.31; P 2.2; H 2.73; N 2.48; V 1.93; T 2.88; Y 2.33
